Biological target: T1, LRP6 G171V (human, UniProt O75197 32-1384, limits assumed)
T1 construct: The parent protein is printed inconsistently (LRP6 in the legend, LRP5 in the text); also called Human HBM G171V mutation; LRP5, G171V
T1 sequence (looked up): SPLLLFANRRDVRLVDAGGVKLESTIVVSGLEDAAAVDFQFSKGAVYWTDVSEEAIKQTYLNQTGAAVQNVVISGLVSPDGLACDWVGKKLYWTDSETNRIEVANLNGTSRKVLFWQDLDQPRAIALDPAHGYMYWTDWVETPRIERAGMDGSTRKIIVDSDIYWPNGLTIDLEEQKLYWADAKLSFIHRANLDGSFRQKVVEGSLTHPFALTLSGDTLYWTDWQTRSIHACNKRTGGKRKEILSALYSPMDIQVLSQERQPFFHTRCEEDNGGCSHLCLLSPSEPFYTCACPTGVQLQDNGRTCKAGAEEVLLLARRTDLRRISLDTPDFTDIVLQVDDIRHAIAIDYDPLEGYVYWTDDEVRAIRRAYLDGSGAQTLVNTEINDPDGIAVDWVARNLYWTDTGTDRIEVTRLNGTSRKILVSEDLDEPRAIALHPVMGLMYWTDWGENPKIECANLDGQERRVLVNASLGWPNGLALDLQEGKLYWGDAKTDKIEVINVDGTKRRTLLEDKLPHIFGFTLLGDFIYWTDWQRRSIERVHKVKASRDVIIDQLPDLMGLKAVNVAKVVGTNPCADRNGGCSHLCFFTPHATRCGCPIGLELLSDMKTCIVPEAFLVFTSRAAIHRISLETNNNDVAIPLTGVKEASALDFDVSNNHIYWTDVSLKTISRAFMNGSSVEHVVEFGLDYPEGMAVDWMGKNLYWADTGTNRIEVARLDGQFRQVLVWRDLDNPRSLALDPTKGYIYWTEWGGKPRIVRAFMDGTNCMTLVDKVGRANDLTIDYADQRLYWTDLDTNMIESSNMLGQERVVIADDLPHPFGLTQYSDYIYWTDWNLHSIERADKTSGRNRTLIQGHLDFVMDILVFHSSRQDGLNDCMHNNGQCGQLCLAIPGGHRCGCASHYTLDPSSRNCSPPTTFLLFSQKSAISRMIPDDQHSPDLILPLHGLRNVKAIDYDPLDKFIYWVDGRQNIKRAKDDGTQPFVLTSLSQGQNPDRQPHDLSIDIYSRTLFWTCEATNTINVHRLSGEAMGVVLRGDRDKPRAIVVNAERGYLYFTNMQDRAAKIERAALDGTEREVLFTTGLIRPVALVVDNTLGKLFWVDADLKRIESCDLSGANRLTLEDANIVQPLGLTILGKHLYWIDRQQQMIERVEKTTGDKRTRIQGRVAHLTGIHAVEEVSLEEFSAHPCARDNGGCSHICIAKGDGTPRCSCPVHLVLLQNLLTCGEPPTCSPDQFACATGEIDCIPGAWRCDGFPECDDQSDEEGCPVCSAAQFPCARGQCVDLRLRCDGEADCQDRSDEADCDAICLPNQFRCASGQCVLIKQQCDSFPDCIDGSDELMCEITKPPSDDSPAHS
Test: immunoprecipitation, anti-Flag M2 affinity gel (FIG. 2H)
Method: A […] dish of 293 cells was transfected with 10 ug of LRP5, LRP6, SOST or Wise, using Fugene 6 (Roche). pCS2+LRP5 contains the extracellular portion of the human sequence between EcoRI-Xbal. pCS2+SOST contain the whole reading frame and has been modified at the 3′ end to have a kozak sequence and Flag tag, Wise-Flag, and LRP6-IgG-FC are described in Itasaki et al. (2003). pCS2+ with an Ig-FC insert is the vector control. The supernatants were collected on day 1, day 2, and day 3. The supernatant was concentrated through an appropriate molecular weight Amicon ultra (Millipore) spin column. A protein concentration was taken on the concentrated supernatants, and 50 ug of each sample was used in each IP. Anti-Flag M2 affinity gel (Sigma) was used for the Wise and SOSTIPs.

B1: SOST-Flag (ligand, mouse, UniProt Q99P68 24-211, looked up)
chain: QGWQAFRNDATEVIPGLGEYPEPPPENNQTMNRAENGGRPPHHPYDAKDVSEYSCRELHYTRFLTDGPCRSAKPVTELVCSGQCGPARLLPNAIGRVKWWRPNGPDFRCIPDRYRAQRVQLLCPGGAAPRSRKVRLVASCKCKRLTRFHNQSELKDFGPETARPQKGRKPRPGARGAKANQAELENAY
notes: mature; This entry was not used because neither its species nor its tie to the assay construct is stated; also called pCS2+SOST; not shown: Flag tag at the 3' end of the reading frame
Does B1 bind?
Result: no binding

Reference: US20160289316A1 (STOWERS INSTITUTE FOR MEDICAL RESEARCH, published 2016)
